Consider 1 substance from PMC2213037.

For the assay, the target named is Syk tyrosine kinase (mouse (endogenous in NMuMG)) (UniProt P48025). Nature of the assay: co-IP.
Syk tyrosine kinase (mouse (endogenous in NMuMG)), sequence (P48025 whole entry): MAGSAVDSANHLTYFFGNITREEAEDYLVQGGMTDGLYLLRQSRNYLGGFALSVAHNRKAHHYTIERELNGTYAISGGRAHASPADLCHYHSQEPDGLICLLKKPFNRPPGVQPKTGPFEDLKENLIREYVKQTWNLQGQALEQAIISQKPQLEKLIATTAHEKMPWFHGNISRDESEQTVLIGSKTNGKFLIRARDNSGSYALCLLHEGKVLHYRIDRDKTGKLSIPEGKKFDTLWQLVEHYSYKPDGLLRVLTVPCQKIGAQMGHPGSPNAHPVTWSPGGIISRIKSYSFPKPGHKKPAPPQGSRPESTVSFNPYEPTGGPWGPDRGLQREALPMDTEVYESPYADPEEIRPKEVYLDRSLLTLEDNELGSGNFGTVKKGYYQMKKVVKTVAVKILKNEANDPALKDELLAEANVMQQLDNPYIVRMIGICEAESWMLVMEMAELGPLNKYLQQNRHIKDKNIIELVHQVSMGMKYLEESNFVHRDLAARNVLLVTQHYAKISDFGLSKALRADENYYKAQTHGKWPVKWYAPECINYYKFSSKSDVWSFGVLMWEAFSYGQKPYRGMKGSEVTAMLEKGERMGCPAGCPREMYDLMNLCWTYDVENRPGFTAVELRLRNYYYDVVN

MMTV Env surface unit (SU, gp52), sequence (P03374 99-688): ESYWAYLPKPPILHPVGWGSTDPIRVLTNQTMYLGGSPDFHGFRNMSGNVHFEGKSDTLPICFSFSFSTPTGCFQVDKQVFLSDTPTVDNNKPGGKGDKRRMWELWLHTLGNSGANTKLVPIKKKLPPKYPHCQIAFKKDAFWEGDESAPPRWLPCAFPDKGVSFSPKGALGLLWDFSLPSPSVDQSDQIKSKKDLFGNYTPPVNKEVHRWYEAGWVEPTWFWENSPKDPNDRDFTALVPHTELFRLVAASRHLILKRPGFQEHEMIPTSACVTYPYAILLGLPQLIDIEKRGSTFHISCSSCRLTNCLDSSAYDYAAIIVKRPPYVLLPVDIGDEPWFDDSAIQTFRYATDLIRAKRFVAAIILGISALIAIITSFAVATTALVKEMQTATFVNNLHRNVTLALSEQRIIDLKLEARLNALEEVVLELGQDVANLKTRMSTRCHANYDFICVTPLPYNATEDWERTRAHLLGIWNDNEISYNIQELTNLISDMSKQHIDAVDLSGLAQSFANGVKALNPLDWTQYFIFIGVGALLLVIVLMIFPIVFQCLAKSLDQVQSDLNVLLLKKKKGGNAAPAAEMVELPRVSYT

In turn, “MMTV Env surface unit (SU, gp52) (from UniProt P03374 99-454) (natural protein)” yielded a percent of SU coprecipitated with Syk of less than 34%.
